According to patent publication US20150344570A1 (published 2015):

T1: FcγRIIb, extracellular domain with C-terminal His tag (human, UniProt P31994 43-217)
T1 construct: extracellular domain; also called 2b; FcgRIIb; not shown: His tag at the C terminus
T1 sequence (looked up): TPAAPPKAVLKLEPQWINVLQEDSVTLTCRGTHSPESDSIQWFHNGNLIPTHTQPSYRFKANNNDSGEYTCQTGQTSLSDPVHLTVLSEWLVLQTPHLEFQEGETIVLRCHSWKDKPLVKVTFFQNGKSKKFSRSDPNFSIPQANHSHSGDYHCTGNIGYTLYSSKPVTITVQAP

T2: FcγRIIa H (FcgRIIa type H, His at position 131), extracellular domain with C-terminal His tag (human, UniProt P12318 34-217)
T2 construct: extracellular domain; also called 2aH; FcgRIIa H; not shown: His tag at the C terminus
T2 sequence (looked up): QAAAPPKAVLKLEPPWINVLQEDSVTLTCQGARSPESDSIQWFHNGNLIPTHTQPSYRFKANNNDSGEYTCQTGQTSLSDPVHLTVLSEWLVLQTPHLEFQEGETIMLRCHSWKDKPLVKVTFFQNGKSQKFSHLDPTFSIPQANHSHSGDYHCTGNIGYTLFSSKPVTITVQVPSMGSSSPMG

B1: GpH7-A5/GpH7-B3 variant S267_01G/GpL16-k0 (antibody, human IgG1, kappa)
heavy 1: not shown
heavy 2: not shown
light: DIVMTQSPLSLPVTPGEPASISCQASESLVHSNRNTYLHWYLQKPGQSPQLLIYKVSNRFSGVPDRFSGSGSGTDFTLKISRVEAEDVGVYYCSQNTHVPPTFGQGTKVEIERTVAAPSVFIFPPSDEQLKSGTASVVCLLNNFYPREAKVQWKVDNALQSGNSQESVTEQDSKDSTYSLSSTLTLSKADYEKHKVYACEVTHQGLSSPVTKSFNRGEC
notes: He Ab; alteration in one H chain only; also called He Ab
B2: GpH7-A5/GpH7-B3 variant S267_10E/GpL16-k0 (antibody, human IgG1, kappa)
heavy 1: not shown
heavy 2: not shown
light: B1 light
notes: as for B1
B3: GpH7-A5/GpH7-B3 variant H268_02A/GpL16-k0 (antibody, human IgG1, kappa)
heavy 1: not shown
heavy 2: not shown
light: B1 light
notes: as for B1
B4: GpH7-A5/GpH7-B3 variant S267_09D/GpL16-k0 (antibody, human IgG1, kappa)
heavy 1: not shown
heavy 2: not shown
light: B1 light
notes: as for B1
B5: GpH7-A5/GpH7-B3 variant H268_19Q/GpL16-k0 (antibody, human IgG1, kappa)
heavy 1: not shown
heavy 2: not shown
light: B1 light
notes: as for B1
B6: GpH7-A5/GpH7-B3 variant S267_03V/GpL16-k0 (antibody, human IgG1, kappa)
heavy 1: not shown
heavy 2: not shown
light: B1 light
notes: as for B1
B7: GpH7-A5/GpH7-B3 variant S267_07I/GpL16-k0 (antibody, human IgG1, kappa)
heavy 1: not shown
heavy 2: not shown
light: B1 light
notes: as for B1
B8: GpH7-A5/GpH7-B3 variant H268_10E/GpL16-k0 (antibody, human IgG1, kappa)
heavy 1: not shown
heavy 2: not shown
light: B1 light
notes: as for B1
B9: GpH7-A5/GpH7-B3 variant S267_04F/GpL16-k0 (antibody, human IgG1, kappa)
heavy 1: not shown
heavy 2: not shown
light: B1 light
notes: as for B1
B10: GpH7-A5/GpH7-B3 variant S267_15Y/GpL16-k0 (antibody, human IgG1, kappa)
heavy 1: not shown
heavy 2: not shown
light: B1 light
notes: as for B1
B11: GpH7-A5/GpH7-B3 variant S267_06M/GpL16-k0 (antibody, human IgG1, kappa)
heavy 1: not shown
heavy 2: not shown
light: B1 light
notes: as for B1
B12: GpH7-A5/GpH7-B3 variant H268_01G/GpL16-k0 (antibody, human IgG1, kappa)
heavy 1: not shown
heavy 2: not shown
light: B1 light
notes: as for B1
B13: GpH7-A5/GpH7-B3 variant S267_19Q/GpL16-k0 (antibody, human IgG1, kappa)
heavy 1: not shown
heavy 2: not shown
light: B1 light
notes: as for B1
B14: GpH7-A5/GpH7-B3 variant K326_03V/GpL16-k0 (antibody, human IgG1, kappa)
heavy 1: not shown
heavy 2: not shown
light: B1 light
notes: as for B1
B15: GpH7-A5/GpH7-B3 variant H268_13S/GpL16-k0 (antibody, human IgG1, kappa)
heavy 1: not shown
heavy 2: not shown
light: B1 light
notes: as for B1
B16: GpH7-A5/GpH7-B3 variant P271_09D/GpL16-k0 (antibody, human IgG1, kappa)
heavy 1: not shown
heavy 2: not shown
light: B1 light
notes: as for B1
B17: GpH7-A5/GpH7-B3 variant S267_20W/GpL16-k0 (antibody, human IgG1, kappa)
heavy 1: not shown
heavy 2: not shown
light: B1 light
notes: as for B1
B18: GpH7-A5/GpH7-B3 variant H268_18N/GpL16-k0 (antibody, human IgG1, kappa)
heavy 1: not shown
heavy 2: not shown
light: B1 light
notes: as for B1
B19: GpH7-A5/GpH7-B3 variant K326_02A/GpL16-k0 (antibody, human IgG1, kappa)
heavy 1: not shown
heavy 2: not shown
light: B1 light
notes: as for B1
B20: GpH7-A5/GpH7-B3 variant V266_19Q/GpL16-k0 (antibody, human IgG1, kappa)
heavy 1: not shown
heavy 2: not shown
light: B1 light
notes: as for B1
B21: GpH7-A5/GpH7-B3 variant P271_10E/GpL16-k0 (antibody, human IgG1, kappa)
heavy 1: not shown
heavy 2: not shown
light: B1 light
notes: as for B1
B22: GpH7-A5/GpH7-B3 variant P271_14T/GpL16-k0 (antibody, human IgG1, kappa)
heavy 1: not shown
heavy 2: not shown
light: B1 light
notes: as for B1
B23: GpH7-A5/GpH7-B3 variant H268_05P/GpL16-k0 (antibody, human IgG1, kappa)
heavy 1: not shown
heavy 2: not shown
light: B1 light
notes: as for B1
B24: GpH7-A5/GpH7-B3 variant S267_02A/GpL16-k0 (antibody, human IgG1, kappa)
heavy 1: not shown
heavy 2: not shown
light: B1 light
notes: as for B1
B25: GpH7-A5/GpH7-B3 variant S267_14T/GpL16-k0 (antibody, human IgG1, kappa)
heavy 1: not shown
heavy 2: not shown
light: B1 light
notes: as for B1
B26: GpH7-A5/GpH7-B3 variant P271_01G/GpL16-k0 (antibody, human IgG1, kappa)
heavy 1: not shown
heavy 2: not shown
light: B1 light
notes: as for B1
B27: GpH7-A5/GpH7-B3 variant S267_05P/GpL16-k0 (antibody, human IgG1, kappa)
heavy 1: not shown
heavy 2: not shown
light: B1 light
notes: as for B1
B28: GpH7-A5/GpH7-B3 variant V266_16H/GpL16-k0 (antibody, human IgG1, kappa)
heavy 1: not shown
heavy 2: not shown
light: B1 light
notes: as for B1
B29: GpH7-A5/GpH7-B3 variant S267_16H/GpL16-k0 (antibody, human IgG1, kappa)
heavy 1: not shown
heavy 2: not shown
light: B1 light
notes: as for B1
B30: GpH7-A5/GpH7-B3 variant H268_09D/GpL16-k0 (antibody, human IgG1, kappa)
heavy 1: not shown
heavy 2: not shown
light: B1 light
notes: as for B1
B31: GpH7-A5/GpH7-B3 variant S298_08L/GpL16-k0 (antibody, human IgG1, kappa)
heavy 1: not shown
heavy 2: not shown
light: B1 light
notes: as for B1
B32: GpH7-A5/GpH7-B3 variant S267_08L/GpL16-k0 (antibody, human IgG1, kappa)
heavy 1: not shown
heavy 2: not shown
light: B1 light
notes: as for B1

target: T1, FcγRIIb, extracellular domain with …; experiment: SPR (Biacore), relative binding, GpH7-A5/GpH7-B3/GpL16-k0 = 100

Row | He/Con_2b | Binder
1 | 105 % of control | B1
2 | 379 % of control | B2
3 | 167 % of control | B3
4 | 310 % of control | B4
5 | 133 % of control | B5
6 | 192 % of control | B6
7 | 192 % of control | B7
8 | 230 % of control | B8
9 | 48 % of control | B9
10 | 37.9 % of control | B10
11 | 210 % of control | B11
12 | 144 % of control | B12
13 | 218 % of control | B13
14 | 175 % of control | B14
15 | 160 % of control | B15
16 | 120 % of control | B16

Row | He/Con_2b | Binder
17 | 57.2 % of control | B17
18 | 156 % of control | B18
19 | 139 % of control | B19
20 | 89.2 % of control | B20
21 | 109 % of control | B21
22 | 95.4 % of control | B22
23 | 116 % of control | B23
24 | 243 % of control | B24
25 | 104 % of control | B25
26 | 193 % of control | B26
27 | 31.5 % of control | B27
28 | 57.2 % of control | B28
29 | 65.9 % of control | B29
30 | 239 % of control | B30
31 | 108 % of control | B31
32 | 109 % of control | B32

target: T2, FcγRIIa H (FcgRIIa type H, His at …); experiment: as above

Row | He/Con_2aH | Binder
33 | 71.3 % of control | B1
34 | 102 % of control | B2
35 | 114 % of control | B3
36 | 105 % of control | B4
37 | 102 % of control | B5
38 | 50.8 % of control | B6
39 | 34.7 % of control | B7
40 | 124 % of control | B8
41 | 22.7 % of control | B9
42 | 19.6 % of control | B10
43 | 34.3 % of control | B11
44 | 99.2 % of control | B12
45 | 61.3 % of control | B13
46 | 97 % of control | B14
47 | 112 % of control | B15
48 | 70.1 % of control | B16

Row | He/Con_2aH | Binder
49 | 37.9 % of control | B17
50 | 112 % of control | B18
51 | 106 % of control | B19
52 | 46.4 % of control | B20
53 | 63.1 % of control | B21
54 | 60.9 % of control | B22
55 | 81.8 % of control | B23
56 | 120 % of control | B24
57 | 63.3 % of control | B25
58 | 107 % of control | B26
59 | 25.1 % of control | B27
60 | 21.2 % of control | B28
61 | 29.8 % of control | B29
62 | 133 % of control | B30
63 | 85 % of control | B31
64 | 29 % of control | B32

target: T2, FcγRIIa H (FcgRIIa type H, His at …); experiment: SPR; He/Con_2aH divided by He/Con_2b (FcγRIIa H binding over FcγRIIb binding)

Row | He_2aH/2b (IIaH/IIb) [ratio] | Binder
65 | 0.68 | B1
66 | 0.27 | B2
67 | 0.68 | B3
68 | 0.34 | B4
69 | 0.77 | B5
70 | 0.26 | B6
71 | 0.18 | B7
72 | 0.54 | B8
73 | 0.47 | B9
74 | 0.52 | B10
75 | 0.16 | B11
76 | 0.69 | B12
77 | 0.28 | B13
78 | 0.55 | B14
79 | 0.7 | B15
80 | 0.58 | B16

Row | He_2aH/2b (IIaH/IIb) [ratio] | Binder
81 | 0.66 | B17
82 | 0.72 | B18
83 | 0.76 | B19
84 | 0.52 | B20
85 | 0.58 | B21
86 | 0.64 | B22
87 | 0.7 | B23
88 | 0.49 | B24
89 | 0.61 | B25
90 | 0.55 | B26
91 | 0.8 | B27
92 | 0.37 | B28
93 | 0.45 | B29
94 | 0.55 | B30
95 | 0.78 | B31
96 | 0.27 | B32
